Data as given in patent US20140274782A1, “AFFINITY REAGENTS AND METHODS FOR DETECTION, PURIFICATION, AND PROTEOMIC ANALYSIS OF METHYLATED PROTEINS” (The Board of Trustees of the Leland Stanford Junior …, priority 2013, published 2014).

How the values were obtained:
3×MBT domain of L3MBTL1 = assay: Triple SILAC pull-down, 3xMBT/3xMBTD355N ratio (cytoplasmic, nuclear and chromatin fractions of 293T cells); type: binding, human; conditions: SILAC ratio, pull-down 3xMBT vs 3xMBTD355N; for 3xMBT/D355N UNC Heavy: experiment with UNC0638 in heavy SILAC media; for 3xMBT/D355N UNC Light: experiment with UNC0638 in light SILAC media;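 for all read-outs here: proteins quantified with MaxQuant, requiring at least two unique peptides and quantification in both label directions, normalized to the mean of proteins from a digested loading control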
G9a and GLP = molecular target: T1, G9a and GLP (Homo sapiens, UniProt Q96KQ7+Q9H9B1); assay: Triple SILAC pull-down after UNC0638 treatment of 293T cells, DMSO/UNC0638 ratio of protein captured by 3×MBT; type: cell-based; parameters: cells were treated for 24 hours with UNC0638 at 2.5 μM or DMSO vehicle control; endogenous in cells; host or cells: HEK 293T; conditions: for Relative to UNC0638 UNC Heavy / Relative to UNC0638 UNC Light: SILAC ratio DMSO/UNC0638 of protein pulled down with 3xMBT; for Relative to UNC0638 UNC Heavy: UNC0638 in heavy SILAC media; for Relative to UNC0638 UNC Light: UNC0638 in light SILAC media; for Relative to UNC0638 Average: average of UNC Light and UNC Heavy experiments;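 for all read-outs here: mass spectrometry (Q-Exactive) SILAC quantitation, DMSO/UNC0638 ratio computed after subtracting 3×MBTD355N mutant pull-down background, only proteins with at least twofold 3×MBT over mutant signal considered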
T1 sequence (Q96KQ7 2-1210 limits assumed): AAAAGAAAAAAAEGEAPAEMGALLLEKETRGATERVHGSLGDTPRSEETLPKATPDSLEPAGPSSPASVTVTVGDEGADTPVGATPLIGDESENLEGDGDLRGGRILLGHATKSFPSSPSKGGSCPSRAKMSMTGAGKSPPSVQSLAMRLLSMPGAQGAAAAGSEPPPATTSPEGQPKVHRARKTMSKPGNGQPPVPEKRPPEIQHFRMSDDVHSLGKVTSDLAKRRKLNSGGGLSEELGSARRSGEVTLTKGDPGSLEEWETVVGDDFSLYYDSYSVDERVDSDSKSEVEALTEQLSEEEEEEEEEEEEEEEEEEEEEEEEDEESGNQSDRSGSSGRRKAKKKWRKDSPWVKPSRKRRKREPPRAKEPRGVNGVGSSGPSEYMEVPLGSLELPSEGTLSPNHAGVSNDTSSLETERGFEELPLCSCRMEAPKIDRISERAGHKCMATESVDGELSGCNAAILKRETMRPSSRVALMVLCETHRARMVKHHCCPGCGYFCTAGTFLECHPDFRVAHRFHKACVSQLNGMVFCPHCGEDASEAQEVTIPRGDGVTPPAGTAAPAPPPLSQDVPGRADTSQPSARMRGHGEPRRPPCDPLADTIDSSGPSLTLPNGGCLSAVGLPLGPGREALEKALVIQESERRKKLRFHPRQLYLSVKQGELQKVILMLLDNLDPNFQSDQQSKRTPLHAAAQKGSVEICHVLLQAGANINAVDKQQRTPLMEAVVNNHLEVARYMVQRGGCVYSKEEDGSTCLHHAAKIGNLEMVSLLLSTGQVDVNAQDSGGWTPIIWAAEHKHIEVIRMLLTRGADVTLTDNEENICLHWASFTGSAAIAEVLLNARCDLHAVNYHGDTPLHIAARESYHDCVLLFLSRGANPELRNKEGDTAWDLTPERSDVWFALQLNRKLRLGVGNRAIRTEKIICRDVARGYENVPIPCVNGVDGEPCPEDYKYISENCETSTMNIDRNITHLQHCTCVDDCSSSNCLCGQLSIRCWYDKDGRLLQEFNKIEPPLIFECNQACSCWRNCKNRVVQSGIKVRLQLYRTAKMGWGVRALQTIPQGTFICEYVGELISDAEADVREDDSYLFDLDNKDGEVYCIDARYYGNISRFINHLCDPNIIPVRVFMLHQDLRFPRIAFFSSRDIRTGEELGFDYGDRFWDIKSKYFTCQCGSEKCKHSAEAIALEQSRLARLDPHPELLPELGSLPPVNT
T1 sequence (Q9H9B1 2-1298 limits assumed): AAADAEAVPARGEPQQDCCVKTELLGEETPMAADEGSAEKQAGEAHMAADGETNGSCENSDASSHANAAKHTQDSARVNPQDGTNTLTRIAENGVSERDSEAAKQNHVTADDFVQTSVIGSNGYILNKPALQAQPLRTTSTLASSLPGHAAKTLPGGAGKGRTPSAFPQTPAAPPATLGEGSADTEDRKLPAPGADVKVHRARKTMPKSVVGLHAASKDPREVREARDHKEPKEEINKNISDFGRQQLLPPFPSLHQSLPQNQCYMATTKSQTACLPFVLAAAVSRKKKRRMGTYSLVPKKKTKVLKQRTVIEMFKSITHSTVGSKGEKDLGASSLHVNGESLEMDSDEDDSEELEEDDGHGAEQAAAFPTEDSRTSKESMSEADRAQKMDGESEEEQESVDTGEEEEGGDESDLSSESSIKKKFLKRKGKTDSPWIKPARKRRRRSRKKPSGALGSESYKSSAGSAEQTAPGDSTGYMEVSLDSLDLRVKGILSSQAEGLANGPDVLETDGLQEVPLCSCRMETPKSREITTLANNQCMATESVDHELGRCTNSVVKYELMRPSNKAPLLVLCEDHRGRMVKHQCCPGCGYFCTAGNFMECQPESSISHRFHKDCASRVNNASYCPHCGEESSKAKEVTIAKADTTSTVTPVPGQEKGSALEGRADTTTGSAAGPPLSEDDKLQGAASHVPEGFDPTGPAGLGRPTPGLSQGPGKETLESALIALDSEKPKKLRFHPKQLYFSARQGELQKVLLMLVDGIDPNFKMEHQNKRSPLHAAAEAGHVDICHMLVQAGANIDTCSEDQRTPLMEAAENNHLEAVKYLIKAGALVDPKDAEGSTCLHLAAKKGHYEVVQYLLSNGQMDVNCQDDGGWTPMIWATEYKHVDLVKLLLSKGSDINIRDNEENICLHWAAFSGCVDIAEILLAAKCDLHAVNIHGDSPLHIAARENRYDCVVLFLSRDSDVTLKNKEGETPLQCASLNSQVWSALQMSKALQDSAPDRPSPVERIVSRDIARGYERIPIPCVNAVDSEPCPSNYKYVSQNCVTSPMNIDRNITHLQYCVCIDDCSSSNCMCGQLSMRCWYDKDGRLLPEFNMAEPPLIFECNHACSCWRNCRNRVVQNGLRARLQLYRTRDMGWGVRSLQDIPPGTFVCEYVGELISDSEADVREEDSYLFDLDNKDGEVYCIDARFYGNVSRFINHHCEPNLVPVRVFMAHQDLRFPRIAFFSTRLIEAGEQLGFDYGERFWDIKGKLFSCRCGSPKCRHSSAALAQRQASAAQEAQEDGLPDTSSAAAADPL

B1: ILKAP (protein, UniProt Q9H0C8 1-392, looked up)
Integrin-linked …: MDLFGDLPEPERSPRPAAGKEAQKGPLLFDDLPPASSTDSGSGGPLLFDDLPPASSGDSGSLATSISQMVKTEGKGAKRKTSEEEKNGSEELVEKKVCKASSVIFGLKGYVAERKGEREEMQDAHVILNDITEECRPPSSLITRVSYFAVFDGHGGIRASKFAAQNLHQNLIRKFPKGDVISVEKTVKRCLLDTFKHTDEEFLKQASSQKPAWKDGSTATCVLAVDNILYIANLGDSRAILCRYNEESQKHAALSLSKEHNPTQYEERMRIQKAGGNVRDGRVLGVLEVSRSIGDGQYKRCGVTSVPDIRRCQLTPNDRFILLACDGLFKVFTPEEAVNFILSCLEDEKIQTREGKSAADARYEAACNRLANKAVQRGSADNVTVMVVRIGH
3×MBT domain of L3MBTL1
  3xMBT/D355N UNC Heavy: 3.22 log base 2
  3xMBT/D355N UNC Light: 2.54 log base 2
G9a and GLP
  Relative to UNC0638 UNC Heavy: −0.07 log base 2
  Relative to UNC0638 UNC Light: 0.33 log base 2
  Relative to UNC0638 Average: 0.13 log base 2

B2: TRMT61A (protein, UniProt Q96FX7 2-289, looked up)
tRNA …: SFVAYEELIKEGDTAILSLGHGAMVAVRVQRGAQTQTRHGVLRHSVDLIGRPFGSKVTCGRGGWVYVLHPTPELWTLNLPHRTQILYSTDIALITMMLELRPGSVVCESGTGSGSVSHAIIRTIAPTGHLHTVEFHQQRAEKAREEFQEHRVGRWVTVRTQDVCRSGFGVSHVADAVFLDIPSPWEAVGHAWDALKVEGGRFCSFSPCIEQVQRTCQALAARGFSELSTLEVLPQVYNVRTVSLPPPDLGTGTDGPAGSDTSPFRSGTPMKEAVGHTGYLTFATKTPG
3×MBT domain of L3MBTL1
  3xMBT/D355N UNC Heavy: 2.78 log base 2
  3xMBT/D355N UNC Light: 3.82 log base 2
G9a and GLP
  Relative to UNC0638 UNC Heavy: −0.07 log base 2
  Relative to UNC0638 UNC Light: 0.29 log base 2
  Relative to UNC0638 Average: 0.11 log base 2

B3: UBAP2 (protein, UniProt Q5T6F2 1-1119, looked up)
Ubiquitin-associated protein 2: MMTSVSSDHCRGAREKPQISAAQSTQPQKQVVQATAEQMRLAQVIFDKNDSDFEAKVKQLMEVTGKNQDECIVALHDCNGDVNKAINILLEGNSDTTSWETVGCKKKNFAKENSENKENREKKSEKESSRGRGNNNRKGRGGNRGREFRGEENGIDCNQVDKPSDRGKRARGRGFGRGRGRGAGRFSTQGMGTFNPADYSDSTSTDVCGTKLVVWEAAQNGADEGTELASNTHNIAQDLSNKSSYGLKGAWKNSVEEWTTEDWTEDLSETKVFTASSAPAENHILPGQSIDLVALLQKPVPHSQASEANSFETSQQQGFGQALVFTNSQHNNQMAPGTGSSTAVNSCSPQSLSSVLGSGFGELAPPKMANITSSQILDQLKAPSLGQFTTTPSTQQNSTSHPTTTTSWDLKPPTSQSSVLSHLDFKSQPEPSPVLSQLSQRQQHQSQAVTVPPPGLESFPSQAKLRESTPGDSPSTVNKLLQLPSTTIENISVSVHQPQPKHIKLAKRRIPPASKIPASAVEMPGSADVTGLNVQFGALEFGSEPSLSEFGSAPSSENSNQIPISLYSKSLSEPLNTSLSMTSAVQNSTYTTSVITSCSLTSSSLNSASPVAMSSSYDQSSVHNRIPYQSPVSSSESAPGTIMNGHGGGRSQQTLDTPKTTGPPSALPSVSSLPSTTSCTALLPSTSQHTGDLTSSPLSQLSSSLSSHQSSLSAHAALSSSTSHTHASVESASSHQSSATFSTAATSVSSSASSGASLSSSMNTANSLCLGGTPASASSSSSRAAPLVTSGKAPPNLPQGVPPLLHNQYLVGPGGLLPAYPIYGYDELQMLQSRLPVDYYGIPFAAPTALASRDGSLANNPYPGDVTKFGRGDSASPAPATTPAQPQQSQSQTHHTAQQPFVNPALPPGYSYTGLPYYTGMPSAFQYGPTMFVPPASAKQHGVNLSTPTPPFQQASGYGQHGYSTGYDDLTQGTAAGDYSKGGYAGSSQAPNKSAGSGPGKGVSVSSSTTGLPDMTGSVYNKTQTFDKQGFHAGTPPPFSLPSVLGSTGPLASGAAPGYAPPPFLHILPAHQQPHSQLLHHHLPQDAQSGSGQRSQPSSLQPKSQASKPAYGNSPYWTN
3×MBT domain of L3MBTL1
  3xMBT/D355N UNC Heavy: 2.90 log base 2
  3xMBT/D355N UNC Light: 1.92 log base 2
G9a and GLP
  Relative to UNC0638 UNC Heavy: 0.20 log base 2
  Relative to UNC0638 UNC Light: 0.04 log base 2
  Relative to UNC0638 Average: 0.12 log base 2

B4: PABPN1 (protein, UniProt Q86U42 2-306, looked up)
Polyadenylate-binding protein …: AAAAAAAAAAGAAGGRGSGPGRRRHLVPGAGGEAGEGAPGGAGDYGNGLESEELEPEELLLEPEPEPEPEEEPPRPRAPPGAPGPGPGSGAPGSQEEEEEPGLVEGDPGDGAIEDPELEAIKARVREMEEEAEKLKELQNEVEKQMNMSPPPGNAGPVIMSIEEKMEADARSIYVGNVDYGATAEELEAHFHGCGSVNRVTILCDKFSGHPKGFAYIEFSDKESVRTSLALDESLFRGRQIKVIPKRTNRPGISTTDRGFPRARYRARTTNYNSSRSRFYSGFNSRPRGRVYRGRARATSWYSPY
3×MBT domain of L3MBTL1
  3xMBT/D355N UNC Heavy: 3.77 log base 2
  3xMBT/D355N UNC Light: 4.04 log base 2
G9a and GLP
  Relative to UNC0638 UNC Heavy: 0.21 log base 2
  Relative to UNC0638 UNC Light: 0.04 log base 2
  Relative to UNC0638 Average: 0.13 log base 2

B5: MINA (protein, UniProt Q8IUF8 1-465, looked up)
Ribosomal oxygenase 2: MPKKAKPTGSGKEEGPAPCKQMKLEAAGGPSALNFDSPSSLFESLISPIKTETFFKEFWEQKPLLIQRDDPALATYYGSLFKLTDLKSLCSRGMYYGRDVNVCRCVNGKKKVLNKDGKAHFLQLRKDFDQKRATIQFHQPQRFKDELWRIQEKLECYFGSLVGSNVYITPAGSQGLPPHYDDVEVFILQLEGEKHWRLYHPTVPLAREYSVEAEERIGRPVHEFMLKPGDLLYFPRGTIHQADTPAGLAHSTHVTISTYQNNSWGDFLLDTISGLVFDTAKEDVELRTGIPRQLLLQVESTTVATRRLSGFLRTLADRLEGTKELLSSDMKKDFIMHRLPPYSAGDGAELSTPGGKLPRLDSVVRLQFKDHIVLTVLPDQDQSDEAQEKMVYIYHSLKNSRETHMMGNEEETEFHGLRFPLSHLDALKQIWNSPAISVKDLKLTTDEEKESLVLSLWTECLIQVV
3×MBT domain of L3MBTL1
  3xMBT/D355N UNC Heavy: 2.27 log base 2
  3xMBT/D355N UNC Light: 2.12 log base 2
G9a and GLP
  Relative to UNC0638 UNC Heavy: 0.34 log base 2
  Relative to UNC0638 UNC Light: −0.08 log base 2
  Relative to UNC0638 Average: 0.13 log base 2
